From paper PMC8406286, “A Recently Assembled Degradation Pathway for 2,3-Dichloronitrobenzene in Diaphorobacter sp. Strain JS3051” (mBio, 2021)

Key:
Conditions in all cases: 50 mM Tris-HCl pH 8.0, 25°C
purified protein [1] = substrate: Oc1ccc(Cl)c(Cl)c1O; assay: purified protein
purified protein [2] = substrate: Oc1ccc(Cl)cc1O; assay: purified protein
purified protein [3] = substrate: Oc1cccc(Cl)c1O; assay: purified protein
[4] = substrate: Cc1ccc(O)c(O)c1; assay: spectrophotometric ring-cleavage assay, A260; format: biochemical, Diaphorobacter sp. JS3051
[5] = substrate: Cc1cccc(O)c1O; assay: spectrophotometric ring-cleavage assay, A260; format: biochemical, Diaphorobacter sp. JS3051
[6] = substrate: Oc1ccccc1O; assay: spectrophotometric ring-cleavage assay, A260; format: biochemical, Diaphorobacter sp. JS3051

B1: H6-DccA (Diaphorobacter sp. JS3051) (protein)
chain: MDKRVAEVAGAIVEAVRKILLDKRVTEAEYRAGVDYLTEVAQTRETAVLLDAFLNSTIIEGKAQRSRTSAPGMQGPYFLEGAPVVEGVLKTYDTDDHKPLIIRGTVRSDTGELLAGAVIDVWHSTPDGLYSGIHDNIPMDYYRGKLVTDSQGNFRVRTTMPVPYQIPYEGPTGRLLGHLGSHTWRPAHVHFKVRKDGFEPLTTQYYFEGGKWVDDDCCHGVTPDLITPETIEDGVRVMTLDFVIEREQAEQRKSATETVA
notes: full-length gene in pET-28a(+) (NdeI/BamHI), N-terminal 6xHis tag, purified from E. coli BL21(DE3)
- Km (purified protein [1]): 0.48 ± 0.10 µM
- Vmax (purified protein [1]): 0.43 µM/min
- kcat (purified protein [1]): 0.355 s⁻¹
- kcat/Km (purified protein [1]): 737000 M⁻¹ s⁻¹
- Km (purified protein [2]): 0.73 ± 0.06 µM
- Vmax (purified protein [2]): 0.78 µM/min
- kcat (purified protein [2]): 0.653 s⁻¹
- kcat/Km (purified protein [2]): 893000 M⁻¹ s⁻¹
- Km (purified protein [3]): 2.58 ± 0.38 µM
- Vmax (purified protein [3]): 0.42 µM/min
- kcat (purified protein [3]): 0.35 s⁻¹
- kcat/Km (purified protein [3]): 135000 M⁻¹ s⁻¹
- Km [4]: 10.40 ± 1.35 µM
- Vmax [4]: 4.63 µM/min
- kcat [4]: 3.86 s⁻¹
- kcat/Km [4]: 372000 M⁻¹ s⁻¹
- Km [5]: 12.85 ± 1.52 µM
- Vmax [5]: 0.63 µM/min
- kcat [5]: 0.525 s⁻¹
- kcat/Km [5]: 41700 M⁻¹ s⁻¹
- Km [6]: 9.06 ± 0.88 µM
- Vmax [6]: 0.44 µM/min
- kcat [6]: 0.363 s⁻¹
- kcat/Km [6]: 40000 M⁻¹ s⁻¹
